In US20150024453A1, “INTEGRATED PROCESS FOR DUAL BIOCATALYTIC CONVERSION OF CO2 GAS INTO BIO-PRODUCTS BY ENZYME ENHANCED HYDRATION AND BIOLOGICAL CULTURE” (CO2 SOLUTIONS INC., priority 2012, published 2015):

Assay: Tests of carbonic anhydrase activity in carbonate absorption solutions
Format: biochemical
Excerpt: The absorption solution that is fed to the enzymatic bicarbonate production unit may be a sodium carbonate solution having a sodium carbonate concentration between about 0.3M and about 2.4M (temperature being between about 30 t for a concentration of about 2.5M) or a potassium carbonate solution having a potassium carbonate concentration between about 1M and about 2M. Tests have confirmed that carbonic anhydrase has good activity in sodium carbonate between 0.3M and 0.5M and in potassium carbonate at 1.45M. Halophile-type carbonic anhydrase, with elevated resistance to salt, may be used for higher concentrations. As opposed to carbonates, bicarbonates are less soluble (two times less approximately) and, therefore, if precipitation occurs, it would be of bicarbonate salts rather than carbonate salts. Cooling the ion loaded solution exiting the enzymatic CO2 capture unit may also encourage precipitation, as the solubility of bicarbonates and carbonates would be lowered. For sodium bicarbonate, temperature may be carefully adjusted since below about 30° C., a solution at 2.5M would not be soluble. The following Solubility Table may be used to set, adjust or control the carbonate or bicarbonate concentration as well as temperature in the enzymatic bicarbonate production and CO2 capture unit: […]

With carbonic anhydrase the enzyme activity (in potassium carbonate at 1.45M) was “good activity” and the enzyme activity (in sodium carbonate between 0.3M and 0.5M) was “good activity”.
